From publication PMC5007091 (Molecular Biology of the Cell, 2016)

Biological target: the molecule itself
Experiment: split reporter

B1: Cdc10 (natural protein)
chain: MDPLSSVQPASYVGFDTITNQIEHRLLKKGFQFNIMVVGQSGLGKSTLINTLFASHLIDSATGDDISALPVTKTTEMKISTHTLVEDRVRLNINVIDTPGFGDFIDNSKAWEPIVKYIKEQHSQYLRKELTAQRERFITDTRVHAILYFLQPNGKELSRLDVEALKRLTEIANVIPVIGKSDTLTLDERTEFRELIQNEFEKYNFKIYPYDSEELTDEELELNRSVRSIIPFAVVGSENEIEINGETFRGRKTRWSAINVEDINQCDFVYLREFLIRTHLQDLIETTSYIHYEGFRARQLIALKENANSRSSAHMSSNAIQR
  fluorescence at the bud neck, fold over the negative controls: > 20 fold
